Laboratory results as given in patent publication US20230189818A1, “RNA-BASED CONTROL OF BOTRYTIS” (priority 2021, published 2023).

Legend:
Botrytis cinerea conidia = assay: In vitro liquid-based assay (fungal biomass, 96-well plates, Cytation 5); format: cell-based; settings: co-incubated with conidia for three days, vs untreated control
Procedure: Fungal culture. The Botrytis cinerea was plated each week the culture onto Malt Extract Agar (MEA) from long-term storage on silica stored at 4° C. Three pellets of silica were added to the center of a MEA agar plate and grown at room temperature without parafilm/tape seal for 10-14 days before use; a culture 12 days old was typically used.
Spore and media preparation. A pure culture of B. cinerea was flooded with a 0.01% Triton x-100 solution and conidia scraped free with a sterile hockey stick. The suspension was transferred to two, 1.5 mL centrifuge tubes and centrifuged at 8000 rpm for two minutes. The supernatant was discarded, pelleted spores washed twice with sterile water, then resuspended in sterile water. Conidia were quantified using a hemacytometer and diluted to a final concentration of 5000 conidia/mL stock. A stock solution of 1.25× minimal media was prepared for the assay setup using the components below. Once the stock solution was made, the pH was adjusted to 6.0 using NaOH or KOH, then filter sterilized through a 0.2 um filter tower and vacuum pump and stored at 4° C. The Kao & Michayluk Vitamins (100×) is a filter sterilized stock solution. The stock contains vitamins and amino acids as described by Kao & Michayluk. After filter sterilization, 20 mg of 4-Aminobenzoic acid in 100 ml of solution was added.
Experimental setup. Screening assays were setup in 96-well plates with conidia co-incubated with treatments (controls and dsRNAs) for three days before determining fungal biomass. Each treatment was replicated eight times within a single plate. In each well consisted of 12.5 μl of conidia suspension, 25 μl of the treatment, 12.5 μl of sterile deionized water, and 200 μl of minimal media. Each plate was covered with a breath right film and placed in the percival growth chamber at 23° C. on the shaking platform set to 120 RPM with 24-hour lighting. Plates were incubated for 72 hours before determining fungal growth.
Reading assay plate. Fungal biomass was determined by reading plates with the Cytation 5 machine. The program was set to compile 8 photo slices per well under brightfield microscopy with a 2.5× lens to measure biomass.
Data analysis. Analysis will automatically run on Cytation5 to determine final biomass.
Results are shown in Table 1B representing the average reduction in biomass vs. control for tested sequences across several runs described above.

[1] = system: Botrytis cinerea isolate (B05.10); assay: Detached leaf assay (tomato leaflets, lesion size); format: in vivo; settings: five days post inoculation, vs untreated inoculated control
Procedure: Plant tissue. Tomato plants, variety Brandywine, were grown in the greenhouse for 3 weeks before harvesting the first true leaves for assays. Nodes 2-4 were prioritized for harvest and only lateral leaflets were used for assays. Leaflets of approximately the same size were used each week and were randomized among treatments. Detached leaflets were immediately brought into the lab for treatment and used within 4 hours of harvest. Detached leaflets were kept at 4° C. until they were treated and placed onto a 1% water agar medium for incubation.
Fungal culture. A Botrytis cinerea isolate (B05.10) was preserved on silica for long-term storage and pulled from these tubes stored at 4° C. for growth on a nutritive medium. Three pellets of silica were added to the center of a Malt Extract Agar (MEA) agar plate and grown at room temperature without parafilm/tape seal for ˜14 days, or until abundant conidia formation, before use.
Treatment of leaflets. Leaflets were treated 24 hours before inoculation and applied using an atomizer to get a fine mist of small droplets entirely covering the leaflet. Silwet L-77 was used as a spreader and added for a 0.03% final concentration (Silwet L-77 brand Phyto Technology Laboratories, S7777 Lot #14D7777001 F). The inoculated control was sprayed with the same volume of sterile DI water with Silwet L-77 in the absence of fungicide or experimental material. Leaflets were spray treated by laying them on a paper towel and holding the atomizer ˜6″ away from the leaflet for applications. Treated leaves were placed on a 1% water agar (10 g Bacto Agar, Difco, in 1 L deionized water, sterilized for 30 minutes at 121° C. and poured when reached a temp of 55° C. into 100×20 mm Petri dishes), with lids of the Petri dishes placed back on before putting Petri dishes under plastic bags to maintain humidity before inoculation the following day. Petri dishes of treated leaflets were left on the lab counter until the following day. Each treatment was replicated ten times with each replicate being a single treated leaflet with two inoculation sites, one on each side of the leaf midvein.
Inoculation. The conidial suspension was prepared by pouring a 7% white grape juice solution onto the culture plate, then scraping the plate with a sterile spatula to dislodge the spores and mycelia. The grape juice solution was prepared by mixing Welch's brand organic white grape juice into sterile deionized water. After dislodging the spores and mycelia of the culture, the suspension was poured through two layers of cheesecloth to remove fungal mycelia and catch the conidial suspension in a clean 50 mL conical tube. Approximately 3 uL of TWEEN 20 was added to conidial suspension to prevent sticking to conical tube. The spore concentration was determined using a Neubauer Improved hemocytometer and inoculum was diluted with more 7% grape juice until a spore concentration of 1×10^5 conidia/mL was reached. Inoculum was used to inoculate host tissue within 2 hours of preparation. Each tomato leaflet was inoculated twice, with inoculation sites placed one per side of the leaflet midvein. A 10 μL volume of spore suspension was placed at each inoculation site using a repeater pipette. Special care was taken not to touch the tip to leaflet surface to avoid contamination between treatments.
Incubation. Petri dishes were placed on lunch trays 6 plates high and moved to an incubator. The incubator was humidity controlled and holds at ˜75% relative humidity. The incubator was kept on 12/12 light/dark days and is set to a temperature of 23° C.
Rating. Measurements were taken at five days post inoculation (DPI). Each lesion that developed was measured using electronic calipers in 2 directions perpendicular to each other to help determine lesion diameter.
Data analysis. Data was analyzed using the SAS JMP statistical program (version 13.2.1) with comparisons made to the untreated, inoculated control. […]

[2] = system: Botrytis cinerea B05.10 isolate; assay: Greenhouse whole plant assay (tomato 'Lanai', disease severity); format: in vivo; settings: 25 g ai/ha; final rating day (rating #3); three runs; four-week-old 'Lanai' tomato plant
Procedure: Plant Tissue: Tomato seedlings, variety “Lanai”, were seeded then thinned to one plant per pot in an 18 cell tray. […] Plants were grown at a 23° C./17° C. day/night temperature with 10 hours of light each 24-hour period. The RH was ambient and plants were fertilized two times a day every day except for Sunday when they received only water. Plants were grown using Fafard brand medium (70-80% sphagnum peat moss, perlite, vermiculite, dolomite limestone and watering agent) for the entire experiment.
Fungal culture. A Botrytis cinerea B05.10 isolate was maintained, and spores were harvested as previously described for detached leaf assays, except a grape juice additive was not used for inoculum preparation.
Treatment of plants. Whole tomato plants were treated ˜24 hours before inoculation using the spray booth. A 0.07% Silwet L-77 solution was used as a spreader and added for a 0.07% final volume in water (Silwet L-77 brand Phyto Technology Laboratories, S7777 Lot #14D7777001 F). The spray booth deck was set to 20″ above the plant canopy and a twinjet 8002EVS nozzle with 100 mesh filter placed into the spray mechanism. The spray boom was calibrated before treatment application with specs as follows: 50 GPA rate, 1.25 MPH speed, 6′ spray length, single pass, and at 45 psi to get a catch of 133 mL in 10 seconds (+/−6 mL). Each treatment was replicated ten times for each experimental run.
Inoculation. Plants were inoculated using a mist-o-matic applicator, which is pressurized by manual pumping. The inoculum suspension was poured into the mist-o-matic immediately before inoculation in the GH space. The containers were only filled half-way and inoculum was applied evenly to the surface of all foliage with even coverage.
Incubation. Plants were incubated inside of a 40″ tall humidity chamber supported by PVC pipe and covered in 3M translucent plastic. A humidifier was inside the chamber and set to low and continuous humidity (filled with tap water). The temperature was D:24-20° C./N:20-18° C. with 15 hours of light, of which 9 hours was with supplemental lighting. RH was ambient and watering occurred everyday by sub-irrigation with the bench being flooded for 10 minutes before draining.
Rating. Tomato plants were rated three times during the two-week experiment with rating starting four days post-inoculation and occurring every three to four days after the initial rating date. Plants were rated for the number of lesions and disease severity, which is the percentage of the plant that was symptomatic including necrotic lesions, pathogen sporulation, and chlorosis.
Data analysis. […] Percent disease severity (%DS) was determined by the percent area of the tomato foliage with symptoms including lesions, chlorosis, necrosis, and wilting. Disease severity was rated at three dates (Rating #) over the 12-day test period. Treatments were compared to the untreated, inoculated control and a chemical standard. Statistical analysis was done using SAS JMP version 13.2.1 with treatments compared to the untreated, inoculated control and a chemical standard using Tukey-Kramer and student's T tests.

Molecule	Average % Reduction in Biomass (Botrytis cinerea conidia; 25 ppm dsRNA) [%]	Average % Reduction in Biomass (Botrytis cinerea conidia; 150 ppm dsRNA) [%]	Average % Reduction in Lesion Size ([1]; 30 ppm) [%]	Average % Reduction in Lesion Size ([1]; 50 ppm) [%]	% control [2] [%]
GS2651: dsRNA trigger targeting B. cinerea Bcsec15 (XM_024692064.1); trigger SEQ ID NO 52, RNA 56, reverse complement 60 (nucleic acid, listed as Botrytis cinerea) sense: UAUGCCUGUCAAUAGCGAAGAAGACUUUGAUAAAAUCAUUCAAGUCAGUUGGUAUGUUCCGGACAGACCGAAAGAAGAAUACACAUUCCCCGGUGUAUUACCAUUCUCCCAGAUGUACCCAAUGUGCUGUAUAGAUAUCAGAAAUUUCCUGAAUCGAUUCUACUUCAUAAUGGAUGAUCAUUUUCAACAGCCAAACAUUAUUGAUGAGACACUUAAGAAGUCGAUAGAUGAGCUUCUGUCUGAGGAUAUUU antisense: AAAUAUCCUCAGACAGAAGCUCAUCUAUCGACUUCUUAAGUGUCUCAUCAAUAAUGUUUGGCUGUUGAAAAUGAUCAUCCAUUAUGAAGUAGAAUCGAUUCAGGAAAUUUCUGAUAUCUAUACAGCACAUUGGGUACAUCUGGGAGAAUGGUAAUACACCGGGGAAUGUGUAUUCUUCUUUCGGUCUGUCCGGAACAUACCAACUGACUUGAAUGAUUUUAUCAAAGUCUUCUUCGCUAUUGACAGGCAUA	21	54	9.38	12.74	–
GS245: dsRNA trigger targeting B. cinerea Sec18/Cdc48_2 (XM_024693092.1); trigger SEQ ID NO 13, RNA 25, reverse complement 37 (nucleic acid, listed as Botrytis cinerea) sense: UCAAGAGAGCCGAAGGUCAUAAACGGUCCUGAAGUGCUUAAUAAAUACGUUGGUCAAUCCGAAGAAAAUAUCCGAAAGCUUUUUGCCGAUGCCGAAAAGGAGUACAAGGAAAAGGGAGACGAGAGUGGUCUUCAUAUCAUCAUUUUCGACGAAUUGGAUGCCGUUUGCAAACAAAGAGGAAGUGGAUCAGGUGGCGGAACUGGUGUUGGCGACAGUGUGGUCAAUCAACUGUUGUCUAAGCUUGAUGGUGUUGACCAGCUCAAUAACAUUCUACUUAUUGGAAUGACCAAUCGUAUGGAUAUGAUUGAUGACGCGCUUCUCAGACCCGGACGUUUAGAAGUUCACAUGGAAAUUUCCCUGCCAGAUGAAGCUGGCAGAGCACAAAUUCUUAAGAUUCAUACGUCCAAGAUGUUAAAGAAUGAUGUCAUGGAUACAGAUGUCGAUGUUGCUGAACUUGCUCAUCUAACCAAGAACUUCUCGGGAGCUGAAAUUG antisense: CAAUUUCAGCUCCCGAGAAGUUCUUGGUUAGAUGAGCAAGUUCAGCAACAUCGACAUCUGUAUCCAUGACAUCAUUCUUUAACAUCUUGGACGUAUGAAUCUUAAGAAUUUGUGCUCUGCCAGCUUCAUCUGGCAGGGAAAUUUCCAUGUGAACUUCUAAACGUCCGGGUCUGAGAAGCGCGUCAUCAAUCAUAUCCAUACGAUUGGUCAUUCCAAUAAGUAGAAUGUUAUUGAGCUGGUCAACACCAUCAAGCUUAGACAACAGUUGAUUGACCACACUGUCGCCAACACCAGUUCCGCCACCUGAUCCACUUCCUCUUUGUUUGCAAACGGCAUCCAAUUCGUCGAAAAUGAUGAUAUGAAGACCACUCUCGUCUCCCUUUUCCUUGUACUCCUUUUCGGCAUCGGCAAAAAGCUUUCGGAUAUUUUCUUCGGAUUGACCAACGUAUUUAUUAAGCACUUCAGGACCGUUUAUGACCUUCGGCUCUCUUGA	12	7	34.78	30.52	33
